Assay results published in the supplement of paper PMC11246515.
± gives the standard deviation of the averaged measurements.

Test: total protein half-life in vivo (active degradation + dilution); higher = more stable protein
[1] = E. coli NCM3722 delta-smpB, growth: N-lim chemostat, doubling time 6 h
[2] = E. coli NCM3722 delta-clpP delta-lon delta-hslV, growth: N-lim chemostat, doubling time 6 h
[3] = E. coli NCM3722 delta-clpP, growth: N-lim chemostat, doubling time 6 h
[4] = E. coli NCM3722 delta-hslV, growth: N-lim chemostat, doubling time 6 h
[5] = E. coli NCM3722 delta-lon, growth: N-lim chemostat, doubling time 6 h
[6] = wild type E. coli NCM3722, growth: C-lim chemostat, doubling time 6 h
[7] = wild type E. coli NCM3722, growth: C-lim chemostat, doubling time 12 h
[8] = wild type E. coli NCM3722, growth: N-lim chemostat, doubling time 6 h
[9] = wild type E. coli NCM3722, growth: N-lim chemostat, doubling time 12 h
[10] = wild type E. coli NCM3722, growth: P-lim chemostat, doubling time 6 h
[11] = wild type E. coli NCM3722, growth: P-lim chemostat, doubling time 12 h
[12] = wild type E. coli NCM3722, growth: C-lim chemostat, doubling time 3 h

Sequence | total protein half-life in vivo [1] | total protein half-life in vivo [2] | total protein half-life in vivo [3] | total protein half-life in vivo [4] | total protein half-life in vivo [5] | total protein half-life in vivo [6] | total protein half-life in vivo [7] | total protein half-life in vivo [8] | total protein half-life in vivo [9] | total protein half-life in vivo [10] | total protein half-life in vivo [11] | total protein half-life in vivo [12]
MKIKTILTPVTCALLISFSAHAANADNYKNVINRTGAPQYMKDYDYDDHQRFNPFFDLGAWHGHLLPDGPNTMGGFPGVALLTEEYINFMASNFDRLTVWQDGKKVDFTLEAYSIPGALVQKLTAKDVQVEMTLRFATPRTSLLETKITSNKPLDLVWDGELLEKLEAKEGKPLSDKTIAGEYPDYQRKISATRDGLKVTFGKVRATWDLLTSGESEYQVHKSLPVQTEINGNRFTSKAHINGSTTLYTTYSHLLTAQEVSKEQMQIRDILARPAFYLTASQQRWEEYLKKGLTNPDATPEQTRVAVKAIETLNGNWRSPGGAVKFNTVTPSVTGRWFSGNQTWPWDTWKQAFAMAHFNPDIAKENIRAVFSWQIQPGDSVRPQDVGFVPDLIAWNLSPERGGDGGNWNERNTKPSLAAWSVMEVYNVTQDKTWVAEMYPKLVAYHDWWLRNRDHNGNGVPEYGATRDKAHNTESGEMLFTVKKGDKEETQSGLNNYARVVEKGQYDSLEIPAQVAASWESGRDDAAVFGFIDKEQLDKYVANGGKRSDWTVKFAENRSQDGTLLGYSLLQESVDQASYMYSDNHYLAEMATILGKPEEAKRYRQLAQQLADYINTCMFDPTTQFYYDVRIEDKPLANGCAGKPIVERGKGPEGWSPLFNGAATQANADAVVKVMLDPKEFNTFVPLGTAALTNPAFGADIYWRGRVWVDQFWFGLKGMERYGYRDDALKLADTFFRHAKGLTADGPIQENYNPLTGAQQGAPNFSWSAAHLYMLYNDFFRKQ | 6.15 h | – | – | – | – | – | – | – | – | – | – | –
MKILIVEDDTLLLQGLILAAQTEGYACDSVTTARMAEQSLEAGHYSLVVLDLGLPDEDGLHFLARIRQKKYTLPVLILTARDTLTDKIAGLDVGADDYLVKPFALEELHARIRALLRRHNNQGESELIVGNLTLNMGRRQVWMGGEELILTPKEYALLSRLMLKAGSPVHREILYNDIYNWDNEPSTNTLEVHIHNLRDKVGKARIRTVRGFGYMLVANEEN | 3.93 ± 0.24 h | 6.35 ± 0.76 h | 5.04 ± 0.91 h | 4.7 ± 0.14 h | 4.71 ± 0.34 h | 5.33 ± 0.18 h | 9.36 ± 0.56 h | 5.55 ± 1.2 h | 7.56 ± 0.27 h | 4.89 ± 0.26 h | 9.22 ± 0.027 h | –
MKILRWLFALVMLIATTEAMAAGHSVDVYYGYNGDSRNIATFNLKIMMPSAVYVGEYKSSQWLMTGEILQNVSWSGPPPAPSVKLIGYHQNINKASCPGLPSGWNCGYYTFEVIVSAEIESYFSCPWLVIMNDSEASPGGVTYQGPDSHDTICPSVSVQPYDVSWNENYVSKSKLLTLQSTGGVVEKTLSTYLMKDGKLCDSTQMNETGGYCRWVAQMITFTASGCDKAEVSVTPNRHPITDKQLHDMVVRVDTSSMQPIDSTCRFQYILNEL | 5.02 ± 1.1 h | 4.06 ± 0.19 h | 4.43 h | – | 4.34 h | – | 6.01 h | 4.81 h | > 16 h | 4.43 h | 8.64 ± 0.17 h | 3.03 ± 0.58 h
MKILVDENMPYARDLFSRLGEVTAVPGRPIPVAQLADADALMVRSVTKVNESLLAGKPIKFVGTATAGTDHVDEAWLKQAGIGFSAAPGCNAIAVVEYVFSSLLMLAERDGFSLYDRTVGIVGVGNVGRRLQARLEALGIKTLLCDPPRADRGDEGDFRSLDELVQRADILTFHTPLFKDGPYKTLHLADEKLIRSLKPGAILINACRGAVVDNTALLTCLNEGQKLSVVLDVWEGEPELNVELLKKVDIGTSHIAGYTLEGKARGTTQVFEAYSKFIGHEQHVALDTLLPAPEFGRITLHGPLDQPTLKRLVHLVYDVRRDDAPLRKVAGIPGEFDKLRKNYLERREWSSLYVICDDASAASLLCKLGFNAVHHPAR | 4.62 ± 0.18 h | 5.83 ± 1.3 h | 5.47 ± 1.3 h | 5.17 ± 0.28 h | 5.42 ± 0.064 h | 5.58 ± 0.23 h | 12.6 ± 3.2 h | 4.72 ± 0.047 h | 8.268 ± 0.016 h | 5.71 ± 0.38 h | 11.1 ± 0.13 h | 3 ± 0.38 h
MKILVTGGAGFIGSAVVRHIINNTQDSVVNVDKLTYAGNRESLADVSDSERYVFEHADICDAPAMARIFAQHQPDAVMHLAAESHVDRSITGPAAFIETNIVGTYVLLEAARNYWSALDSDKKNSFRFHHISTDEVYGDLPHPDEVNNTEELPLFTETTAYAPSSPYSASKASSDHLVRAWKRTYGLPTIVTNCSNNYGPYHFPEKLIPLVILNALEGKALPIYGKGDQIRDWLYVEDHARALYTVVTEGKAGETYNIGGHNEKKNIDVVLTICDLLDEIVPKEKSYREQITYVADRPGHDRRYAIDAEKIGRALGWKPQETFESGIRKTVEWYLSNTKWVDNVKSGAYQSWIEQNYEGRQ | – | 5.58 h | – | 5.31 h | – | – | – | 5.85 h | – | 7.66 h | – | –
MKINQPAVAGTLESGDVMIRIAPLDTQDIDLQINSSVEKQFGDAIRTTILDVLARYNVRGVQLNVDDKGALDCILRARLEALLARASGIPALPWEDCQ | 1.09 h | – | – | – | – | – | – | – | – | – | – | –
MKIRSLSRFVLASTMFASFTASAVPGLWQQGYGQGNAEYSVTDASGKMFTINCTGNPDQNGIYQHSVFLILAGDKTVSSHDDSTGITVVMDHKQYAIPSTLGWRNGDNAWFSFIMDIRKARQFDVYVNDQKVGSFNPDVRNAQKVLPTLADCTND | – | – | – | – | – | – | – | – | – | – | – | 1.45 h
